Measured values published in article PMC5680235, “Identification of a peptide recognizing cerebrovascular changes in mouse models of Alzheimer’s disease” (Nature Communications, 2017).
Where no end group is shown, it is not given here. FAM = 5(6)-carboxyfluorescein label

T1: full-length recombinant human CTGF/CCN2 (human, UniProt P29279 27-349)
T1 construct: connective tissue growth factor (CTGF/CCN2), human, full-length recombinant; also called connective tissue growth factor; recombinant CTGF; source: bought: R&D systems (cat#9190-CC)
T1 sequence (looked up): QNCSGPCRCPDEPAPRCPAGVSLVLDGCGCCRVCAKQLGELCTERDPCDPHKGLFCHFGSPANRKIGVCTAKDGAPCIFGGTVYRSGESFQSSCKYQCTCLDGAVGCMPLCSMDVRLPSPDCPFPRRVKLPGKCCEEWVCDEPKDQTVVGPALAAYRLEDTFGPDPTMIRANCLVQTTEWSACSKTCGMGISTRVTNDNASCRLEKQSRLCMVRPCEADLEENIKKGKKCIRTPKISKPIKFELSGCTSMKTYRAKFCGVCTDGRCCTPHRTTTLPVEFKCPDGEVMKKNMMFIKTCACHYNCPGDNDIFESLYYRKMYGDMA


Target: T1, full-length recombinant human CTGF/CCN2
Test: ELISA; plate wells coated with recombinant human CTGF; FAM-peptide in 0.05% Casein/PBST overnight at 4 °C, two peptide concentrations; alone or with excess unlabeled DAG (0.6 mM); detected with anti-FITC HRP antibody, absorbance at 450 nm
Conditions: both partners purified

| Binder | binding result |
| --- | --- |
| {FAM}-CDAGRKQKC (also: cyclic peptide, ring type not given here, cyclic 9-amino acid CX7C peptide found by in vivo T7 phage display in hAPP-J20 mice; Synthesised on rink amide resin, so the C-terminus is probably an amide; the ring is probably a disulfide between the two cysteines (neither is stated for this peptide); also called FAM-DAG; source: synthetic peptide) [FAM-labeled DAG peptide (cyclic CDAGRKQKC)] | binds |
| CDAGRKQKC (also: cyclic peptide, ring type not given here, cyclic 9-amino acid CX7C peptide found by in vivo T7 phage display, without label; Synthesised on rink amide resin, so the C-terminus is probably an amide; also called non-labeled DAG; free DAG; source: synthetic peptide) [unlabeled DAG peptide (cyclic CDAGRKQKC)] | binds |
